Patent US12630600B2 (MEDIMMUNE LIMITED, priority 2022, dated 2026)
Starred links: 1 amine or outer side, 2 acyl side, 3 side chain; linkers in the order of their positions; H or OH if unused. Non-standard residues stand in square brackets, D forms with d. Groups on a side chain read outwards from the residue. No end group written: not given here. *: point of attachment. C20 diacid = O=C(O)CCCCCCCCCCCCCCCCCCC(=O)*; C18 diacid = O=C(O)CCCCCCCCCCCCCCCCC(=O)*; γGlu = O=C(O)[C@H](CCC(=O)[*:2])N[*:1]; αMeF = C[C@](N)(Cc1ccccc1)C(=O)O; AEEA = NCCOCCOCC(=O)O; Aib = CC(C)(N)C(=O)O

B1: Peptide 144 (peptide)
peptide: H[Aib]QGTFTSDVSK[αMeF]LDSK([γGlu-γGlu-AEEA-AEEA-γGlu-γGlu-C18 diacid])RARDFVRWLLE[Aib]G-OH
modifications: N-terminus assumed
SMILES: CC(C)C[C@H](NC(=O)[C@H](Cc1c[nH]c2ccccc12)NC(=O)[C@H](CCCNC(=N)N)NC(=O)[C@@H](NC(=O)[C@H](Cc1ccccc1)NC(=O)[C@H](CC(=O)O)NC(=O)[C@H](CCCNC(=N)N)NC(=O)[C@H](C)NC(=O)[C@H](CCCNC(=N)N)NC(=O)[C@H](CCCCNC(=O)CC[C@H](NC(=O)CC[C@H](NC(=O)COCCOCCNC(=O)COCCOCCNC(=O)CC[C@H](NC(=O)CC[C@H](NC(=O)CCCCCCCCCCCCCCCCC(=O)O)C(=O)O)C(=O)O)C(=O)O)C(=O)O)NC(=O)[C@H](CO)NC(=O)[C@H](CC(=O)O)NC(=O)[C@H](CC(C)C)NC(=O)[C@](C)(Cc1ccccc1)NC(=O)[C@H](CCCCN)NC(=O)[C@H](CO)NC(=O)[C@@H](NC(=O)[C@H](CC(=O)O)NC(=O)[C@H](CO)NC(=O)[C@@H](NC(=O)[C@H](Cc1ccccc1)NC(=O)[C@@H](NC(=O)CNC(=O)[C@H](CCC(N)=O)NC(=O)C(C)(C)NC(=O)[C@@H](N)Cc1c[nH]cn1)[C@@H](C)O)[C@@H](C)O)C(C)C)C(C)C)C(=O)N[C@@H](CC(C)C)C(=O)N[C@@H](CCC(=O)O)C(=O)NC(C)(C)C(=O)NCC(=O)O
B2: Peptide 145 (peptide)
peptide: H[Aib]QGTFTSDVSK[αMeF]LDSK([AEEA-AEEA-γGlu-C18 diacid])RAQDFVRWLASRGI-OH
modifications: N-terminus assumed
SMILES: CC[C@H](C)[C@H](NC(=O)CNC(=O)[C@H](CCCNC(=N)N)NC(=O)[C@H](CO)NC(=O)[C@H](C)NC(=O)[C@H](CC(C)C)NC(=O)[C@H](Cc1c[nH]c2ccccc12)NC(=O)[C@H](CCCNC(=N)N)NC(=O)[C@@H](NC(=O)[C@H](Cc1ccccc1)NC(=O)[C@H](CC(=O)O)NC(=O)[C@H](CCC(N)=O)NC(=O)[C@H](C)NC(=O)[C@H](CCCNC(=N)N)NC(=O)[C@H](CCCCNC(=O)COCCOCCNC(=O)COCCOCCNC(=O)CC[C@H](NC(=O)CCCCCCCCCCCCCCCCC(=O)O)C(=O)O)NC(=O)[C@H](CO)NC(=O)[C@H](CC(=O)O)NC(=O)[C@H](CC(C)C)NC(=O)[C@](C)(Cc1ccccc1)NC(=O)[C@H](CCCCN)NC(=O)[C@H](CO)NC(=O)[C@@H](NC(=O)[C@H](CC(=O)O)NC(=O)[C@H](CO)NC(=O)[C@@H](NC(=O)[C@H](Cc1ccccc1)NC(=O)[C@@H](NC(=O)CNC(=O)[C@H](CCC(N)=O)NC(=O)C(C)(C)NC(=O)[C@@H](N)Cc1c[nH]cn1)[C@@H](C)O)[C@@H](C)O)C(C)C)C(C)C)C(=O)O
B3: Peptide 146 (peptide)
peptide: H[Aib]QGTFTSDVSK[αMeF]LDSK([AEEA-AEEA-γGlu-C18 diacid])RAQDFVRWLASR-OH
modifications: N-terminus assumed
SMILES: CC(C)C[C@H](NC(=O)[C@H](Cc1c[nH]c2ccccc12)NC(=O)[C@H](CCCNC(=N)N)NC(=O)[C@@H](NC(=O)[C@H](Cc1ccccc1)NC(=O)[C@H](CC(=O)O)NC(=O)[C@H](CCC(N)=O)NC(=O)[C@H](C)NC(=O)[C@H](CCCNC(=N)N)NC(=O)[C@H](CCCCNC(=O)COCCOCCNC(=O)COCCOCCNC(=O)CC[C@H](NC(=O)CCCCCCCCCCCCCCCCC(=O)O)C(=O)O)NC(=O)[C@H](CO)NC(=O)[C@H](CC(=O)O)NC(=O)[C@H](CC(C)C)NC(=O)[C@](C)(Cc1ccccc1)NC(=O)[C@H](CCCCN)NC(=O)[C@H](CO)NC(=O)[C@@H](NC(=O)[C@H](CC(=O)O)NC(=O)[C@H](CO)NC(=O)[C@@H](NC(=O)[C@H](Cc1ccccc1)NC(=O)[C@@H](NC(=O)CNC(=O)[C@H](CCC(N)=O)NC(=O)C(C)(C)NC(=O)[C@@H](N)Cc1c[nH]cn1)[C@@H](C)O)[C@@H](C)O)C(C)C)C(C)C)C(=O)N[C@@H](C)C(=O)N[C@@H](CO)C(=O)N[C@@H](CCCNC(=N)N)C(=O)O
B4: Peptide 147 (peptide)
peptide: H[Aib]QGTFTSDVSK[αMeF]LDSK([AEEA-AEEA-γGlu-C18 diacid])RAQDFVRWLEA[Aib]G-OH
modifications: N-terminus assumed
SMILES: CC(C)C[C@H](NC(=O)[C@H](Cc1c[nH]c2ccccc12)NC(=O)[C@H](CCCNC(=N)N)NC(=O)[C@@H](NC(=O)[C@H](Cc1ccccc1)NC(=O)[C@H](CC(=O)O)NC(=O)[C@H](CCC(N)=O)NC(=O)[C@H](C)NC(=O)[C@H](CCCNC(=N)N)NC(=O)[C@H](CCCCNC(=O)COCCOCCNC(=O)COCCOCCNC(=O)CC[C@H](NC(=O)CCCCCCCCCCCCCCCCC(=O)O)C(=O)O)NC(=O)[C@H](CO)NC(=O)[C@H](CC(=O)O)NC(=O)[C@H](CC(C)C)NC(=O)[C@](C)(Cc1ccccc1)NC(=O)[C@H](CCCCN)NC(=O)[C@H](CO)NC(=O)[C@@H](NC(=O)[C@H](CC(=O)O)NC(=O)[C@H](CO)NC(=O)[C@@H](NC(=O)[C@H](Cc1ccccc1)NC(=O)[C@@H](NC(=O)CNC(=O)[C@H](CCC(N)=O)NC(=O)C(C)(C)NC(=O)[C@@H](N)Cc1c[nH]cn1)[C@@H](C)O)[C@@H](C)O)C(C)C)C(C)C)C(=O)N[C@@H](CCC(=O)O)C(=O)N[C@@H](C)C(=O)NC(C)(C)C(=O)NCC(=O)O
B5: Peptide 148 (peptide)
peptide: H[Aib]QGTFTSDVSK[αMeF]LDSK([AEEA-AEEA-γGlu-C18 diacid])RAQDFVRWIAE[Aib]G-OH
modifications: N-terminus assumed
SMILES: CC[C@H](C)[C@H](NC(=O)[C@H](Cc1c[nH]c2ccccc12)NC(=O)[C@H](CCCNC(=N)N)NC(=O)[C@@H](NC(=O)[C@H](Cc1ccccc1)NC(=O)[C@H](CC(=O)O)NC(=O)[C@H](CCC(N)=O)NC(=O)[C@H](C)NC(=O)[C@H](CCCNC(=N)N)NC(=O)[C@H](CCCCNC(=O)COCCOCCNC(=O)COCCOCCNC(=O)CC[C@H](NC(=O)CCCCCCCCCCCCCCCCC(=O)O)C(=O)O)NC(=O)[C@H](CO)NC(=O)[C@H](CC(=O)O)NC(=O)[C@H](CC(C)C)NC(=O)[C@](C)(Cc1ccccc1)NC(=O)[C@H](CCCCN)NC(=O)[C@H](CO)NC(=O)[C@@H](NC(=O)[C@H](CC(=O)O)NC(=O)[C@H](CO)NC(=O)[C@@H](NC(=O)[C@H](Cc1ccccc1)NC(=O)[C@@H](NC(=O)CNC(=O)[C@H](CCC(N)=O)NC(=O)C(C)(C)NC(=O)[C@@H](N)Cc1c[nH]cn1)[C@@H](C)O)[C@@H](C)O)C(C)C)C(C)C)C(=O)N[C@@H](C)C(=O)N[C@@H](CCC(=O)O)C(=O)NC(C)(C)C(=O)NCC(=O)O
B6: Peptide 149 (peptide)
peptide: H[Aib]QGTFTSDVSK[αMeF]LDSK([AEEA-AEEA-γGlu-C18 diacid])RAQDFVRWVVE[Aib]G-OH
modifications: N-terminus assumed
SMILES: CC(C)C[C@H](NC(=O)[C@](C)(Cc1ccccc1)NC(=O)[C@H](CCCCN)NC(=O)[C@H](CO)NC(=O)[C@@H](NC(=O)[C@H](CC(=O)O)NC(=O)[C@H](CO)NC(=O)[C@@H](NC(=O)[C@H](Cc1ccccc1)NC(=O)[C@@H](NC(=O)CNC(=O)[C@H](CCC(N)=O)NC(=O)C(C)(C)NC(=O)[C@@H](N)Cc1c[nH]cn1)[C@@H](C)O)[C@@H](C)O)C(C)C)C(=O)N[C@@H](CC(=O)O)C(=O)N[C@@H](CO)C(=O)N[C@@H](CCCCNC(=O)COCCOCCNC(=O)COCCOCCNC(=O)CC[C@H](NC(=O)CCCCCCCCCCCCCCCCC(=O)O)C(=O)O)C(=O)N[C@@H](CCCNC(=N)N)C(=O)N[C@@H](C)C(=O)N[C@@H](CCC(N)=O)C(=O)N[C@@H](CC(=O)O)C(=O)N[C@@H](Cc1ccccc1)C(=O)N[C@H](C(=O)N[C@@H](CCCNC(=N)N)C(=O)N[C@@H](Cc1c[nH]c2ccccc12)C(=O)N[C@H](C(=O)N[C@H](C(=O)N[C@@H](CCC(=O)O)C(=O)NC(C)(C)C(=O)NCC(=O)O)C(C)C)C(C)C)C(C)C
B7: Peptide 150 (peptide)
peptide: H[Aib]QGTFTSDVSK[αMeF]LDSK([AEEA-AEEA-γGlu-C18 diacid])RAQDFVQWLL[Aib]TE-OH
modifications: not fully specified
B8: Peptide 151 (peptide)
peptide: H[Aib]QGTFTSDVSK[αMeF]LDSK([AEEA-AEEA-γGlu-C20 diacid])RAQDFVRWLL[Aib]TE-OH
modifications: N-terminus assumed
SMILES: CC(C)C[C@H](NC(=O)[C@H](Cc1c[nH]c2ccccc12)NC(=O)[C@H](CCCNC(=N)N)NC(=O)[C@@H](NC(=O)[C@H](Cc1ccccc1)NC(=O)[C@H](CC(=O)O)NC(=O)[C@H](CCC(N)=O)NC(=O)[C@H](C)NC(=O)[C@H](CCCNC(=N)N)NC(=O)[C@H](CCCCNC(=O)COCCOCCNC(=O)COCCOCCNC(=O)CC[C@H](NC(=O)CCCCCCCCCCCCCCCCCCC(=O)O)C(=O)O)NC(=O)[C@H](CO)NC(=O)[C@H](CC(=O)O)NC(=O)[C@H](CC(C)C)NC(=O)[C@](C)(Cc1ccccc1)NC(=O)[C@H](CCCCN)NC(=O)[C@H](CO)NC(=O)[C@@H](NC(=O)[C@H](CC(=O)O)NC(=O)[C@H](CO)NC(=O)[C@@H](NC(=O)[C@H](Cc1ccccc1)NC(=O)[C@@H](NC(=O)CNC(=O)[C@H](CCC(N)=O)NC(=O)C(C)(C)NC(=O)[C@@H](N)Cc1c[nH]cn1)[C@@H](C)O)[C@@H](C)O)C(C)C)C(C)C)C(=O)N[C@@H](CC(C)C)C(=O)NC(C)(C)C(=O)N[C@H](C(=O)N[C@@H](CCC(=O)O)C(=O)O)[C@@H](C)O

The binders below were run against human GLP-1 receptor (human, UniProt P43220) (assay: cell-based or functional assay).

Binder	cAMP production EC50
B1	0.0452 nM
B2	0.0226 nM
B3	0.0246 nM
B4	0.0153 nM
B5	0.0402 nM
B6	0.00871 nM
B7	0.166 nM
B8	0.111 nM

These binders were tested against human glucagon receptor (human, UniProt P47871) (assay: cell-based or functional assay).

Binder	cAMP production EC50
B1	0.702 nM
B2	4.59 nM
B3	1.63 nM
B4	0.0435 nM
B5	0.568 nM
B6	2.65 nM
B7	0.355 nM
B8	0.178 nM
